The values that follow come from paper PMC11295148.

Holding throughout (test): purified protein
Substrate in data set [1]: CN(C)c1ccc(N=Nc2ccccc2C(=O)O)cc1
Format: biochemical, Anaerotignum lactatifermentans. The note with it: 400 μM NADH, 50 mM MOPS pH 7.2, 22 °C.

Substrate in data set [2]: Nc1ccc(N=Nc2ccccc2)c(N)n1
Format: biochemical, Anaerotignum lactatifermentans. The note with it: 400 μM NADH, 50 mM MOPS pH 7.2, 22 °C.

Substrate in data set [3]: CCN(CC)c1ccc(N=Nc2ccccc2C(=O)O)cc1
The data set is classed as biochemical, Anaerotignum lactatifermentans. The note with it: 400 μM NADH, 50 mM MOPS pH 7.2, 22 °C.

Substrate in data set [4]: O=C(O)c1cc(/N=N/c2ccc(S(=O)(=O)Nc3ccccn3)cc2)ccc1O
The note with it: 40 μM NADH, 50 mM MOPS pH 7.2, 22 °C.

B1: AlAzoR (Anaerotignum lactatifermentans DSM 14214) (protein)
chain: MKKVLFVNCCIRREGSRTQKLADHFLEGLRKKEGYEIEELCLMDESLSYFTDGFFEQRERLLADKQFDHPRFRYAHQFAEADKIVIAAPFWDLSFPALLKVYIENLCVEGITFGCNETGCFGTCKADQLIYLTTRGGFYNDNPMEMGSRYIWAMCDFFGIPRYDCVAGDGLDTGVRPVEEILEDAKAEIDRLLAEF
On to B1, for which the Michaelis-Menten constant (Km) (as a rule, the concentration of substrate that gives half-maximal velocity) came out at 17 ± 3 µM in the data set “purified protein [1]”, 23 ± 3 µM in “purified protein [2]”, 30. ± 2 μM in the data set “purified protein [3]” and 8 ± 1 µM in the data set “purified protein [4]”. The kcat (as a rule, the number of substrate molecules converted per active site and unit of time at saturation) amounted to 0.49 ± 0.03 s⁻¹ in the data set “purified protein [1]”, 0.138 ± 0.008 s⁻¹ in “purified protein [2]”, 0.78 ± 0.02 s⁻¹ in the data set “purified protein [3]” and 0.05 s⁻¹ in the data set “purified protein [4]”. Besides, the kcat/Km – broadly, the second-order rate constant that governs catalysis at low substrate concentration – in “purified protein [1]” stood at 28000 ± 4000 M⁻¹ s⁻¹; in “purified protein [2]”, 6000 ± 700 M⁻¹ s⁻¹; in the data set “purified protein [3]”, 26000 ± 2000 M⁻¹ s⁻¹; in “purified protein [4]” it was 6100 M⁻¹ s⁻¹.
